T1: Ribbon (Rib) full-length (Drosophila melanogaster, UniProt Q7KF43 1-661)
T1 sequence: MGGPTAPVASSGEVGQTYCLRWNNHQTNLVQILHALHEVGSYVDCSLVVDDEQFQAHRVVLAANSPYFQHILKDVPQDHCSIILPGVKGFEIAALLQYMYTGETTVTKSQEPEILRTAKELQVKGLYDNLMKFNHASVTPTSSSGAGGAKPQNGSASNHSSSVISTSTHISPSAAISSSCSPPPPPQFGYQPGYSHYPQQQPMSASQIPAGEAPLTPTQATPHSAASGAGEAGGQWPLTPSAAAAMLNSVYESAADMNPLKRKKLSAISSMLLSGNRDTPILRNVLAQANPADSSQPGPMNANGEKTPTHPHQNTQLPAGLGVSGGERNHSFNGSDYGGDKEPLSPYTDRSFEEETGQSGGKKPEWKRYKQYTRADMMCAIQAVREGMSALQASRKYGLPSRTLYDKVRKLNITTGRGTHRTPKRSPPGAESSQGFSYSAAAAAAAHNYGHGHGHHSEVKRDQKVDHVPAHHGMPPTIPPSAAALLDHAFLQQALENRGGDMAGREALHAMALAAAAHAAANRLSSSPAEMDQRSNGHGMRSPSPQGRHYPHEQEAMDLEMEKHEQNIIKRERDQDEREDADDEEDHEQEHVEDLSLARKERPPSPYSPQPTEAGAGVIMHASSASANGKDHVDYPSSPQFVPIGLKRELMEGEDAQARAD

T2: GST-Rib-PSQ DNA-binding domain (Drosophila melanogaster, UniProt Q7KF43 363-414)
T2 sequence: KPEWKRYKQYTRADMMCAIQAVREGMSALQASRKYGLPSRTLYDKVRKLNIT

T3: CrebA full-length (Drosophila melanogaster, UniProt P29747 1-516)
T3 sequence: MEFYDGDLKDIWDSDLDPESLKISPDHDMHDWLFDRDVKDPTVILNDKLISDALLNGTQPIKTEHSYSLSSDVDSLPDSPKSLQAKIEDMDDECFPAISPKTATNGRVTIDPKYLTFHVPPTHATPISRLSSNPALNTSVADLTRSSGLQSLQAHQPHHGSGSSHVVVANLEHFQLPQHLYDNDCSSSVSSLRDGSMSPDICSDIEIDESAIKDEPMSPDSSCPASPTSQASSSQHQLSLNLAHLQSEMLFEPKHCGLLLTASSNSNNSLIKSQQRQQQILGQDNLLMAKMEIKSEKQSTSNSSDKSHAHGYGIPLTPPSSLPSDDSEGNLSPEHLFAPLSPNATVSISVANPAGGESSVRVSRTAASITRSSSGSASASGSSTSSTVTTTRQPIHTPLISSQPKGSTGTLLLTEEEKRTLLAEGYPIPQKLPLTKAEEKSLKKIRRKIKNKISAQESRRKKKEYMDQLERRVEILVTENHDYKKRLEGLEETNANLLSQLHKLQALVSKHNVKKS

B1: RpL7A (dsDNA)
DNA 1: AACTGCCACTTCCTTTCTTTTTCGTTCCACGTTTCCGGTGAGTGCATGTG
DNA 2: CACATGCACTCACCGGAAACGTGGAACGAAAAAGAAAGGAAGTGGCAGTT
B2: RpS27A (dsDNA)
DNA 1: TTCAACTTCCTGTCACGCTGTGTGTGTGTTCTTTCTTTCCTTTGATTCTG
DNA 2: CAGAATCAAAGGAAAGAAAGAACACACACACAGCGTGACAGGAAGTTGAA
B3: RpL17 (dsDNA)
DNA 1: ACTGCCATTTCCTTTCTTTTTCGTTCCACGTTTCCGGTGAGTGCATGTGC
DNA 2: GCACATGCACTCACCGGAAACGTGGAACGAAAAAGAAAGGAAATGGCAGT
B4: RpS17* (T to G in TC-rich motif) (dsDNA)
DNA 1: ACACAACCACCCTGGTCACACGGCATCCGGCGGGGGCGGGCGGGGCCGGC
DNA 2: GCCGGCCCCGCCCGCCCCCGCCGGATGCCGTGTGACCAGGGTGGTTGTGT
B5: RpL19 (dsDNA)
DNA 1: TTCCGGCTGTCAAATTTTTCTTTCTTTCCTAGCCACGACGAGGTCGACAG
DNA 2: CTGTCGACCTCGTCGTGGCTAGGAAAGAAAGAAAAATTTGACAGCCGGAA
B6: TSN-2 (dsDNA)
DNA 1: ATCTGATTTGGTGACGTTGGCACCCTGCA
DNA 2: TGCAGGGTGCCAACGTCACCAAATCAGAT
B7: RpL11 (dsDNA)
DNA 1: CGCGGCCACACTATCCTTTCCTTCTTTTCTTACAAGTTTCCGGTGAGTGC
DNA 2: GCACTCACCGGAAACTTGTAAGAAAAGAAGGAAAGGATAGTGTGGCCGCG
B8: RpL6 (dsDNA)
DNA 1: CCCTGGTCACACCGCTCTAGACATAACCTTCCTTTTCCAATAATTTTTGT
DNA 2: ACAAAAATTATTGGAAAAGGAAGGTTATGTCTAGAGCGGTGTGACCAGGG
B9: RpS10b (dsDNA)
DNA 1: ATCCCTTCCGTTTCCCTTTCTTTTCGTCTTCACGTTTCCGGTGAGTGCGT
DNA 2: ACGCACTCACCGGAAACGTGAAGACGAAAAGAAAGGGAAACGGAAGGGAT
B10: RpS18 (dsDNA)
DNA 1: GGCAGCCACATTAATTCGGCCTTCTTTTCTTTTCCCGTTTCCGGTGAGTG
DNA 2: CACTCACCGGAAACGGGAAAAGAAAAGAAGGCCGAATTAATGTGGCTGCC
B11: RpS17 (dsDNA)
DNA 1: ACACAACCACCCTGGTCACACGGCATCCTTCTTTTTCTTTCGTTTCCGGC
DNA 2: GCCGGAAACGAAAGAAAAAGAAGGATGCCGTGTGACCAGGGTGGTTGTGT
B12: RpS3 (dsDNA)
DNA 1: AACGTGTCTCGCGCGGGCACACTGGCCTCTTTCTTTTCTGCGCACCACGT
DNA 2: ACGTGGTGCGCAGAAAAGAAAGAGGCCAGTGTGCCCGCGCGAGACACGTT
B13: P24.1 (dsDNA)
DNA 1: CCGATAGCATATACGTGGGTCCGCAGTGC
DNA 2: GCACTGCGGACCCACGTATATGCTATCGG

Columns and labels:
Assay in all cases: EMSA
[1] = target: T1, Ribbon (Rib) full-length
[2] = target: T2, GST-Rib-PSQ DNA-binding domain
[3] = target: T3, CrebA full-length

Row | Binder | binding result [1] | binding result [2] | binding result [3]
1 | B1 | binds | binds | –
2 | B2 | binds | binds | –
3 | B3 | binds | binds | –
4 | B4 | binds | binds | –
5 | B5 | binds | binds | –
6 | B6 | – | – | binds
7 | B7 | binds | binds | –
8 | B8 | binds | binds | –
9 | B9 | binds | binds | –
10 | B10 | binds | binds | –
11 | B11 | binds | binds | –
12 | B12 | binds | binds | –
13 | B13 | – | – | binds
